Test results published in US20250262210A1 (TRUSTEES OF COLUMBIA UNIVERSITY IN THE CITY OF NEW YORK, published 2025).

What was measured:
[1] = target: T1, ZCCHC6 (human, UniProt Q5VYS8 1-1495, limits assumed); assay: IP/MS, LZTR1 wild type-FLAG, U87
T1 sequence (looked up): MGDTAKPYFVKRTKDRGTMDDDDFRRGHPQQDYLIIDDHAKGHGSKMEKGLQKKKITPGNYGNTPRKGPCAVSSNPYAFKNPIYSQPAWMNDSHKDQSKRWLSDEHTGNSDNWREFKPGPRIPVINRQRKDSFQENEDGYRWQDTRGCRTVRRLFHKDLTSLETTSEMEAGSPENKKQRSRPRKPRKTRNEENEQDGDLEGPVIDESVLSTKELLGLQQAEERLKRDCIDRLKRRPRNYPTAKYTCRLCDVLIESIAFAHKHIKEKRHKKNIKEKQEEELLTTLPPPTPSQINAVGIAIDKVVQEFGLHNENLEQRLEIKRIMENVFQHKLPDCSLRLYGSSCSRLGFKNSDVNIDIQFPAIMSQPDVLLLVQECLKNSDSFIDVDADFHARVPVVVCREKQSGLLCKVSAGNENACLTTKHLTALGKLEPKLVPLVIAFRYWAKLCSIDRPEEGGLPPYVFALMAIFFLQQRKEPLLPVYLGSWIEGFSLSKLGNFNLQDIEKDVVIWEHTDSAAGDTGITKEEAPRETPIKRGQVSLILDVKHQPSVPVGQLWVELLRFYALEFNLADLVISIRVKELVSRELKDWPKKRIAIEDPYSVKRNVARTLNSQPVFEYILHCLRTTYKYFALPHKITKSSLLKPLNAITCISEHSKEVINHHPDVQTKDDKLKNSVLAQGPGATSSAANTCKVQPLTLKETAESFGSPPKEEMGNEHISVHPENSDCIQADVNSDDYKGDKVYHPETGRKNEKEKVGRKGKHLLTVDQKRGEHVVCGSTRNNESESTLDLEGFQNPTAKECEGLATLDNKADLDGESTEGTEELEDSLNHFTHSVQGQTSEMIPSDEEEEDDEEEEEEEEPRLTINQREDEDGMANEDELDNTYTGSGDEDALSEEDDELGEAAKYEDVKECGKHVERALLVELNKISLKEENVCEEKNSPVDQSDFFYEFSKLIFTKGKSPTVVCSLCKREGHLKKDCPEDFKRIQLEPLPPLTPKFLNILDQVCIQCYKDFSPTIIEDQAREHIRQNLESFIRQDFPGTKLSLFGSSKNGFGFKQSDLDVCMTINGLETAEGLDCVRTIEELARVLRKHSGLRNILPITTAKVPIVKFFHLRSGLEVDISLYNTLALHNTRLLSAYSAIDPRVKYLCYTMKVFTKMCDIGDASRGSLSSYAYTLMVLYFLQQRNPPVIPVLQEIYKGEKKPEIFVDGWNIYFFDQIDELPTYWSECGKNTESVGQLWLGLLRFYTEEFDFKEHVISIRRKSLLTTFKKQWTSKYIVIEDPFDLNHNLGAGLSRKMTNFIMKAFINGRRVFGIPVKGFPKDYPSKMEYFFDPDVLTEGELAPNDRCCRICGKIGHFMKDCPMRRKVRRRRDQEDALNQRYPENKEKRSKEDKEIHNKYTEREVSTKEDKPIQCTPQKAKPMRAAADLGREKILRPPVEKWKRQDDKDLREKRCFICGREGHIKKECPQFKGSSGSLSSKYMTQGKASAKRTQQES
In short: (§1)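 Read-out: spectral counts from LC-MS/MS (Orbitrap Fusion) after MaxQuant identification. Variable modifications were Met oxidation, protein N-terminal acetylation and N/Q deamidation.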

[2] = target: T2, HECTD3 (human, UniProt Q5T447 2-861, limits assumed); assay: IP/MS, LZTR1 wild type-FLAG, U87
T2 sequence (looked up): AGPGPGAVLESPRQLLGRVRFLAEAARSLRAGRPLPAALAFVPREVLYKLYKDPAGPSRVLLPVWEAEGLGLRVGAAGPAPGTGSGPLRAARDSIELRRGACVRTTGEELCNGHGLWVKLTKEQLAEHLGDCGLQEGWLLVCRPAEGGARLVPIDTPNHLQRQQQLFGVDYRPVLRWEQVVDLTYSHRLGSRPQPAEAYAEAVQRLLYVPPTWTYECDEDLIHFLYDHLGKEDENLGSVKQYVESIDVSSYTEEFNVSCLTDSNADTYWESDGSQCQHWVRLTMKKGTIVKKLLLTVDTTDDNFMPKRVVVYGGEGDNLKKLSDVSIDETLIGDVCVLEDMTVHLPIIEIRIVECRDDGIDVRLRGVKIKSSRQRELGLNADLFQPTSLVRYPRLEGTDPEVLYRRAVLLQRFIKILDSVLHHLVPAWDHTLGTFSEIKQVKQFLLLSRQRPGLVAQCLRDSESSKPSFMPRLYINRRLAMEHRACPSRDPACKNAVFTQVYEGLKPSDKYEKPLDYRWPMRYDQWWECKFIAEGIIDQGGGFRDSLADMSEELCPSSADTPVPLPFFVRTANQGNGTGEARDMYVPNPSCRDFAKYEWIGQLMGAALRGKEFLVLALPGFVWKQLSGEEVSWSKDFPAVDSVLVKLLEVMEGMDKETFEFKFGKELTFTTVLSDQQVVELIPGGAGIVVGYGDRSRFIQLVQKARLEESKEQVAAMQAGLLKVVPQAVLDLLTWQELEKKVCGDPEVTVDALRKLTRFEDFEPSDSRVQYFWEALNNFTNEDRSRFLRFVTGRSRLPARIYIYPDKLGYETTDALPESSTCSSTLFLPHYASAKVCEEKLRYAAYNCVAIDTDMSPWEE
In short: as §1

- binding result [1]: binds
- binding result [2]: binds
B1: LZTR1-FLAG (other, human, UniProt Q8N653 1-840, looked up)
chain: MAGPGSTGGQIGAAALAGGARSKVAPSVDFDHSCSDSVEYLTLNFGPFETVHRWRRLPPCDEFVGARRSKHTVVAYKDAIYVFGGDNGKTMLNDLLRFDVKDCSWCRAFTTGTPPAPRYHHSAVVYGSSMFVFGGYTGDIYSNSNLKNKNDLFEYKFATGQWTEWKIEGRLPVARSAHGATVYSDKLWIFAGYDGNARLNDMWTIGLQDRELTCWEEVAQSGEIPPSCCNFPVAVCRDKMFVFSGQSGAKITNNLFQFEFKDKTWTRIPTEHLLRGSPPPPQRRYGHTMVAFDRHLYVFGGAADNTLPNELHCYDVDFQTWEVVQPSSDSEVGGAEVPERACASEEVPTLTYEERVGFKKSRDVFGLDFGTTSAKQPTQPASELPSGRLFHAAAVISDAMYIFGGTVDNNIRSGEMYRFQFSCYPKCTLHEDYGRLWESRQFCDVEFVLGEKEECVQGHVAIVTARSRWLRRKITQARERLAQKLEQEAAPVPREAPGVAAGGARPPLLHVAIREAEARPFEVLMQFLYTDKIKYPRKGHVEDVLLIMDVYKLALSFQLCRLEQLCRQYIEASVDLQNVLVVCESAARLQLSQLKEHCLNFVVKESHFNQVIMMKEFERLSSPLIVEIVRRKQQPPPRTPLDQPVDIGTSLIQDMKAYLEGAGAEFCDITLLLDGHPRPAHKAILAARSSYFEAMFRSFMPEDGQVNISIGEMVPSRQAFESMLRYIYYGEVNMPPEDSLYLFAAPYYYGFYNNRLQAYCKQNLEMNVTVQNVLQILEAADKTQALDMKRHCLHIIVHQFTKVSKLPTLRSLSQQLLLDIIDSLASHISDKQCAELGADI
notes: Expressed in HEK 293T, HeLa or U87 cells; used as cell lysate; also called LZTR1 wild type-FLAG; LZTR1 WT; not shown: FLAG tag at the C-terminus
